Earlier results as cited in article PMC9747160.

Target: APOBEC3B CTD (Homo sapiens) (UniProt Q9UH17)
Assay: BLI

Sequence of UniProt Q9UH17 (Q9UH17 187-382): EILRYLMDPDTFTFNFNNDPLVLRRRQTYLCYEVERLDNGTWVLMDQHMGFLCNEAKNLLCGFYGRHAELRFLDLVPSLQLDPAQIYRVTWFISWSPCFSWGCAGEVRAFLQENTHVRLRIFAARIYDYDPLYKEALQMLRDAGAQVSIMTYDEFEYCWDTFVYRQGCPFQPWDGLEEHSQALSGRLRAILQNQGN

Substance: BORF2 (from UniProt P03190)
- Kd: 1 nM
